The text below walks through data of patent US20150147318A1 (ZOETIS SERVICES, published 2015).

The labels stand for the following.
B1: LTM construct 32 (HC Y100W, LC D28S) (antibody, V domains shown)
VH: EVQLVESGGDLARPGGSLKLSCVVSGFSLIGYDINWVRQAPGKGLQWVTMIWGDGTTDYNSALKSRFTVSRDNAMNTVYLQMNSLRVEDTAVYYCARGGWYYGTSYYFDYWGQGTLVTVSS
VL: DIVMTQTPLSLSVSPGETASISCRASQSISNHLNWFRQKPGQSPQRLIYYISRFHSGVPDRFSGSGSGTDFTLRISRVEADDTGVYYCQQSKTLPYTFGAGTKLEIK
notes: Point mutant of canE3M65, converted into full IgG and expressed in HEK293; The canine constant regions are not restated
B2: LTM construct 36 (HC Y100W, LC K92D) (antibody, V domains shown)
VH: EVQLVESGGDLARPGGSLKLSCVVSGFSLIGYDINWVRQAPGKGLQWVTMIWGDGTTDYNSALKSRFTVSRDNAMNTVYLQMNSLRVEDTAVYYCARGGWYYGTSYYFDYWGQGTLVTVSS
VL: DIVMTQTPLSLSVSPGETASISCRASQDISNHLNWFRQKPGQSPQRLIYYISRFHSGVPDRFSGSGSGTDFTLRISRVEADDTGVYYCQQSDTLPYTFGAGTKLEIK
notes: Point mutant of canE3M65 as full IgG; Constant regions are not restated
B3: LTM construct 37 (HC Y100W, LC *D28S, NH31HN, S91Y) (antibody, V domains shown)
VH: EVQLVESGGDLARPGGSLKLSCVVSGFSLIGYDINWVRQAPGKGLQWVTMIWGDGTTDYNSALKSRFTVSRDNAMNTVYLQMNSLRVEDTAVYYCARGGWYYGTSYYFDYWGQGTLVTVSS
VL: DIVMTQTPLSLSVSPGETASISCRASQSISHNLNWFRQKPGQSPQRLIYYISRFHSGVPDRFSGSGSGTDFTLRISRVEADDTGVYYCQQYKTLPYTFGAGTKLEIK
notes: Point mutant of canE3M65 as full IgG
B4: LTM construct 39 (HC Y100W, LC D28S, S91Y) (antibody, V domains shown)
VH: EVQLVESGGDLARPGGSLKLSCVVSGFSLIGYDINWVRQAPGKGLQWVTMIWGDGTTDYNSALKSRFTVSRDNAMNTVYLQMNSLRVEDTAVYYCARGGWYYGTSYYFDYWGQGTLVTVSS
VL: DIVMTQTPLSLSVSPGETASISCRASQSISNHLNWFRQKPGQSPQRLIYYISRFHSGVPDRFSGSGSGTDFTLRISRVEADDTGVYYCQQYKTLPYTFGAGTKLEIK
notes: as for B2
B5: LTM construct 33 (HC Y100W, LC *D28S, NH31HN) (antibody, V domains shown)
VH: EVQLVESGGDLARPGGSLKLSCVVSGFSLIGYDINWVRQAPGKGLQWVTMIWGDGTTDYNSALKSRFTVSRDNAMNTVYLQMNSLRVEDTAVYYCARGGWYYGTSYYFDYWGQGTLVTVSS
VL: DIVMTQTPLSLSVSPGETASISCRASQSISHNLNWFRQKPGQSPQRLIYYISRFHSGVPDRFSGSGSGTDFTLRISRVEADDTGVYYCQQSKTLPYTFGAGTKLEIK
notes: as for B3
B6: LTM construct 38 (HC Y100W, LC D28S, NH31HN, K92D) (antibody, V domains shown)
VH: EVQLVESGGDLARPGGSLKLSCVVSGFSLIGYDINWVRQAPGKGLQWVTMIWGDGTTDYNSALKSRFTVSRDNAMNTVYLQMNSLRVEDTAVYYCARGGWYYGTSYYFDYWGQGTLVTVSS
VL: DIVMTQTPLSLSVSPGETASISCRASQSISHNLNWFRQKPGQSPQRLIYYISRFHSGVPDRFSGSGSGTDFTLRISRVEADDTGVYYCQQSDTLPYTFGAGTKLEIK
notes: as for B2
B7: LTM construct 110 (HC Y101W, G103A; LC K92D) (antibody, V domains shown)
VH: EVQLVESGGDLARPGGSLKLSCVVSGFSLIGYDINWVRQAPGKGLQWVTMIWGDGTTDYNSALKSRFTVSRDNAMNTVYLQMNSLRVEDTAVYYCARGGYWYATSYYFDYWGQGTLVTVSS
VL: DIVMTQTPLSLSVSPGETASISCRASQDISNHLNWFRQKPGQSPQRLIYYISRFHSGVPDRFSGSGSGTDFTLRISRVEADDTGVYYCQQSDTLPYTFGAGTKLEIK
notes: as for B3
B8: LTM construct 111 (HC Y101W, G103A; LC *D28S, NH31HN, S91Y) (antibody, V domains shown)
VH: EVQLVESGGDLARPGGSLKLSCVVSGFSLIGYDINWVRQAPGKGLQWVTMIWGDGTTDYNSALKSRFTVSRDNAMNTVYLQMNSLRVEDTAVYYCARGGYWYATSYYFDYWGQGTLVTVSS
VL: DIVMTQTPLSLSVSPGETASISCRASQSISHNLNWFRQKPGQSPQRLIYYISRFHSGVPDRFSGSGSGTDFTLRISRVEADDTGVYYCQQYKTLPYTFGAGTKLEIK
notes: The '*' is not explained
B9: SSM-2 (LC E3M, HC SSMwtHCG31Q) (antibody, V domains shown)
VH: EVQLVESGGDLARPGGSLKLSCVVSGFSLIQYDINWVRQAPGKGLQWVTMIWGDGTTDYNSALKSRFTVSRDNAMNTVYLQMNSLRVEDTAVYYCARGGYYYGTSYYFDYWGQGTLVTVSS
VL: DIVMTQTPLSLSVSPGETASISCRASQDISNHLNWFRQKPGQSPQRLIYYISRFHSGVPDRFSGSGSGTDFTLRISRVEADDTGVYYCQQSKTLPYTFGAGTKLEIK
notes: IgG expressed in HEK293; constant regions are not restated
B10: SSM-3 (LC E3M, HC SSMwtHCG31E) (antibody, V domains shown)
VH: EVQLVESGGDLARPGGSLKLSCVVSGFSLIEYDINWVRQAPGKGLQWVTMIWGDGTTDYNSALKSRFTVSRDNAMNTVYLQMNSLRVEDTAVYYCARGGYYYGTSYYFDYWGQGTLVTVSS
VL: DIVMTQTPLSLSVSPGETASISCRASQDISNHLNWFRQKPGQSPQRLIYYISRFHSGVPDRFSGSGSGTDFTLRISRVEADDTGVYYCQQSKTLPYTFGAGTKLEIK
B11: SSM-19 (LC SSMwtLCR53S, HC SSMwtHCD54T, L63I) (antibody, V domains shown)
VH: EVQLVESGGDLARPGGSLKLSCVVSGFSLIGYDINWVRQAPGKGLQWVTMIWGTGTTDYNSAIKSRFTVSRDNAMNTVYLQMNSLRVEDTAVYYCARGGYYYGTSYYFDYWGQGTLVTVSS
VL: DIVMTQTPLSLSVSPGETASISCRASQDISNHLNWFRQKPGQSPQRLIYYISSFHSGVPDRFSGSGSGTDFTLRISRVEADDTGVYYCQQSKTLPYTFGAGTKLEIK
B12: SSM-8 (LC E3M, HC SSMwtHCD54T, L63I) (antibody, V domains shown)
VH: EVQLVESGGDLARPGGSLKLSCVVSGFSLIGYDINWVRQAPGKGLQWVTMIWGTGTTDYNSAIKSRFTVSRDNAMNTVYLQMNSLRVEDTAVYYCARGGYYYGTSYYFDYWGQGTLVTVSS
VL: DIVMTQTPLSLSVSPGETASISCRASQDISNHLNWFRQKPGQSPQRLIYYISRFHSGVPDRFSGSGSGTDFTLRISRVEADDTGVYYCQQSKTLPYTFGAGTKLEIK
B13: SSM-13 (LC SSMwtLCR53S, HC SSMwtHCG31Q) (antibody, V domains shown)
VH: EVQLVESGGDLARPGGSLKLSCVVSGFSLIQYDINWVRQAPGKGLQWVTMIWGDGTTDYNSALKSRFTVSRDNAMNTVYLQMNSLRVEDTAVYYCARGGYYYGTSYYFDYWGQGTLVTVSS
VL: DIVMTQTPLSLSVSPGETASISCRASQDISNHLNWFRQKPGQSPQRLIYYISSFHSGVPDRFSGSGSGTDFTLRISRVEADDTGVYYCQQSKTLPYTFGAGTKLEIK
B14: SSM-36 (LC SSM135LCR53S, HC SSM135HCG31E) (antibody, V domains shown)
VH: EVQLVESGGDLARPGGSLKLSCVVSGFSLIEYDINWVRQAPGKGLQWVTMIWGDGTTDYNSALKSRFTVSRDNAMNTVYLQMNSLRVEDTAVYYCARGGYYYATSYYFDYWGQGTLVTVSS
VL: DIVMTQTPLSLSVSPGETASISCRASQDISNNLNWFRQKPGQSPQRLIYYISSFHSGVPDRFSGSGSGTDFTLRISRVEADDTGVYYCQQSKTLPYTFGAGTKLEIK
notes: Both chains are built on the LTM135 template (HC G103A, LC H32N)
B15: SSM-17 (LC SSMwtLCR53S, HC SSMwtHCD54T) (antibody, V domains shown)
VH: EVQLVESGGDLARPGGSLKLSCVVSGFSLIGYDINWVRQAPGKGLQWVTMIWGTGTTDYNSALKSRFTVSRDNAMNTVYLQMNSLRVEDTAVYYCARGGYYYGTSYYFDYWGQGTLVTVSS
VL: DIVMTQTPLSLSVSPGETASISCRASQDISNHLNWFRQKPGQSPQRLIYYISSFHSGVPDRFSGSGSGTDFTLRISRVEADDTGVYYCQQSKTLPYTFGAGTKLEIK
B16: SSM-14 (LC SSMwtLCR53S, HC SSMwtHCG31E) (antibody, V domains shown)
VH: EVQLVESGGDLARPGGSLKLSCVVSGFSLIEYDINWVRQAPGKGLQWVTMIWGDGTTDYNSALKSRFTVSRDNAMNTVYLQMNSLRVEDTAVYYCARGGYYYGTSYYFDYWGQGTLVTVSS
VL: DIVMTQTPLSLSVSPGETASISCRASQDISNHLNWFRQKPGQSPQRLIYYISSFHSGVPDRFSGSGSGTDFTLRISRVEADDTGVYYCQQSKTLPYTFGAGTKLEIK
B17: SSM-34 (LC SSM135LCR53S, HC135 (G103A)) (antibody, V domains shown)
VH: EVQLVESGGDLARPGGSLKLSCVVSGFSLIGYDINWVRQAPGKGLQWVTMIWGDGTTDYNSALKSRFTVSRDNAMNTVYLQMNSLRVEDTAVYYCARGGYYYATSYYFDYWGQGTLVTVSS
VL: DIVMTQTPLSLSVSPGETASISCRASQDISNNLNWFRQKPGQSPQRLIYYISSFHSGVPDRFSGSGSGTDFTLRISRVEADDTGVYYCQQSKTLPYTFGAGTKLEIK
notes: The light chain is the LTM135 template (E3M H32N) plus R53S
B18: SSM-22 (LC SSMwtLCR53S, HC SSMwtHCD54T, G31E) (antibody, V domains shown)
VH: EVQLVESGGDLARPGGSLKLSCVVSGFSLIEYDINWVRQAPGKGLQWVTMIWGTGTTDYNSALKSRFTVSRDNAMNTVYLQMNSLRVEDTAVYYCARGGYYYGTSYYFDYWGQGTLVTVSS
VL: DIVMTQTPLSLSVSPGETASISCRASQDISNHLNWFRQKPGQSPQRLIYYISSFHSGVPDRFSGSGSGTDFTLRISRVEADDTGVYYCQQSKTLPYTFGAGTKLEIK

The target of the first assay is T1, recombinant canine Nerve Growth Factor (Canis lupus familiaris NGF) (canine (Canis lupus familiaris), UniProt Q29074 110-229 (pig entry), limits assumed).
T1 construct: also called canine NGF; Dog NGF
T1 chain: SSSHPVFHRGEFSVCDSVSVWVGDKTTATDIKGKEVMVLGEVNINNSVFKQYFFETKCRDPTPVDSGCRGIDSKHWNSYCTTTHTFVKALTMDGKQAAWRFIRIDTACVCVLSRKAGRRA
The assay can be described thus: SPR, Biacore T100, dog NGF; run 11/22. In general terms: Surface plasmon resonance follows binding to a sensor surface in real time, without labels.
On to B1, for which the Kd (as a rule, the constant that tells how readily two partners part at equilibrium) is 2.25 nM.

Turning to B2, the Kd came to 5.5 nM.

As to B3, the Kd was 1.91 nM.

Consider B4, for which the binding result is recorded as “no binding”.

On to B5, for which the binding result was “no binding”.

For the molecule B6, the Kd is 2.15 nM.

The target in a further assay is T1, recombinant canine Nerve Growth Factor …. The assay can be described thus: SPR, Biacore T100, dog NGF; run 11/29; comment 'Agg?'.
As for B7, the Kd was determined as 0.942 nM.

Regarding B8, the Kd amounted to 0.0288 nM.

The target is the same in the next assay. The assay can be described thus: SPR, 1:1 binding fit, canine NGF.
With B9, the Kd was 14.2 nM; the koff (usually a measure of how fast the partners let go of each other) stood at 0.000114 s⁻¹; the kon (in general, the rate constant with which the complex forms) amounted to 8080 M⁻¹ s⁻¹.

As to B10, the Kd turned out to be 41.4 nM, the koff amounted to 0.000167 s⁻¹ and the kon worked out at 4040 M⁻¹ s⁻¹.

For the molecule B11, the Kd was determined as 37.4 nM, the koff came to 0.00164 s⁻¹ and the kon came to 43800 M⁻¹ s⁻¹.

Take B12: the Kd is 41.8 nM, the koff was 0.000173 s⁻¹ and the kon was 4130 M⁻¹ s⁻¹.

Regarding B13, the Kd was 311 nM, the koff turned out to be 0.00241 s⁻¹ and the kon was determined as 7750 M⁻¹ s⁻¹.

Take B14: the Kd worked out at 40.2 nM, the koff amounted to 0.00033 s⁻¹ and the kon amounted to 8200 M⁻¹ s⁻¹.

Regarding B15, the Kd turned out to be 69.1 nM, the koff turned out to be 0.0014 s⁻¹ and the kon is 20300 M⁻¹ s⁻¹.

As for B16, the Kd is 23.6 nM, the koff was 0.00812 s⁻¹ and the kon came out at 344000 M⁻¹ s⁻¹.

For B17, the Kd amounted to 3.08 nM, the koff worked out at 0.000192 s⁻¹ and the kon was found to be 62400 M⁻¹ s⁻¹.

B18: the Kd was 249 nM, the koff was determined as 0.000296 s⁻¹ and the kon was 1190 M⁻¹ s⁻¹.

A further assay has the same target. The assay can be described thus: SPR, Biacore T100, dog NGF; run 11/24; comment 'Agg?'.
On to B7, for which the Kd stood at 0.00326 nM.

With B8, the Kd came out at 0.146 nM.
